Experimental data reported in patent publication US20210063414A1, “METHODS FOR PREVENTING AND/OR TREATING BONE LOSS CONDITIONS BY MODULATING IRISIN” (Dana-Farber Cancer Institute, Inc., priority 2018, published 2021).

Target: T1, MLO-Y4 cell surface proteins (Mus musculus, UniProt P52825)
T1 construct: endogenous in cells; host or cells: MLO-Y4
T1 sequence (P52825 26-658): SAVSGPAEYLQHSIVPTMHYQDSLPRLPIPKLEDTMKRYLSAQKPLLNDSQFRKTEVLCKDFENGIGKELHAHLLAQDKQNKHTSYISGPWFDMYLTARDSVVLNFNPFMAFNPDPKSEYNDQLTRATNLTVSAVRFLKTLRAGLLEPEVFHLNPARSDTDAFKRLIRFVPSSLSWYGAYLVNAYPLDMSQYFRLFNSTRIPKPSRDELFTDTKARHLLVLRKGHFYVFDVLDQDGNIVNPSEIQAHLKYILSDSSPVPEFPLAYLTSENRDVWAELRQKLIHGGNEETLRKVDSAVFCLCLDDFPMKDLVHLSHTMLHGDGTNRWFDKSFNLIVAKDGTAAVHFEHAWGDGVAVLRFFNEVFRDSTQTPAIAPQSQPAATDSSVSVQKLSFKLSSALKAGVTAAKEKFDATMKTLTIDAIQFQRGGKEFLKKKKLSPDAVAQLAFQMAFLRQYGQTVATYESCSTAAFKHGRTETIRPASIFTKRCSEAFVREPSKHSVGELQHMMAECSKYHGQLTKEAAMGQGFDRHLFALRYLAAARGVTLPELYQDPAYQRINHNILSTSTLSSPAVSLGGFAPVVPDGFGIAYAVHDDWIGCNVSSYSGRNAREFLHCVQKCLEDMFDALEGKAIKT
Assay: Crosslinking/co-immunoprecipitation/mass spectrometry (TMT quantitative proteomics) to identify irisin receptors
Type: binding
Details: co-precipitated protein Cpt2 (CPT2_MOUSE)
Summary of the method: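 Mouse MLO-Y4 cells were switched to serum-free FreeStyle medium for 4 h, chilled, then exposed to 10 nM His-tagged irisin (or adipsin as control) for 20 min. Cells were crosslinked with 1.5 mM DTSSP (30 min, ice), and bound proteins were pulled down on Ni-NTA and eluted with 250 mM imidazole. Eluates were separated by SDS-PAGE, trypsin-digested in gel, TMT 6-plex labelled and quantified by MS3-based LC-MS/MS on an Orbitrap Fusion Lumos.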

TMT signal-to-noise ratio: 177.54
Substance: adipsin
